Data reported in patent publication US7754689B2, “Finger-1 peptide analogs of the TGF-β superfamily” (Wyeth LLC, priority 2006, dated 2010).
No end group written: not given here.

B1: BMP2 Full peptide 747 (peptide)
peptide: Ac-LYVDFSDVGWNDWIVAPPGYHAFYSHGEK
B2: BMP5 peptide 748 (peptide)
peptide: Ac-RDLGWQDWIIAPEGYAAFYSDGEK
B3: BMP12 N-trun_1S peptide 749 (peptide)
peptide: Ac-ELGWDDWIIAPLDYEAYHSEGLK

How the values were obtained:
BMP-12 [1] = molecular target: T1, BMP-12 (Homo sapiens, UniProt Q7Z4P5); assay: Filter-plate binding and elution of BMP-12 on peptide-coupled affinity resins
T1 sequence (Q7Z4P5 322-450): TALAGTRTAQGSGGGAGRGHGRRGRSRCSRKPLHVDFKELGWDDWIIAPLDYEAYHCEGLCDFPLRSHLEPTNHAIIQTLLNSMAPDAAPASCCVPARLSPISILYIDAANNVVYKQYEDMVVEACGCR
Protocol: The coupled resins, plus an unconjugated resin for use as a control, were suspended in 16% ethanol, 150 mM NaCl, and 20 mM Tris buffer at pH 7.5 at a 25% v/v ratio (e.g., […]). A Tecan liquid-handling robot was employed to aliquot 200 μL of each slurry into one of eight rows of a 96 well polystyrene filter plate (0.45 μm hydrophilic filters, Whatman catalog number 770-1806). Spinning at 1200 g for 3 min removed the liquid phase, leaving 50 μL of wet resin on the filters. The resins were then equilibrated with the loading buffers listed in Table 6 (K is a coefficient characterizing the strength of protein binding to a particular resin in a particular buffer). […] The resins were loaded by transferring 150 μL from the load plate to the filter plate and then incubating 20 min on a shaking platform to facilitate binding. The filter plate was spun down and the filtrate collected in a 96 well UV plate. The protein concentration in the filtrate, or flow-through, was calculated as (A280-A320)/1.3. The filter plate was then washed with 150 μL of 100 mM acetic acid, followed by 150 μL of 4M guanidine-HCl and 50 mM sodium acetate at pH 4.0. The protein concentration was measured in the new filtrate as described above. […] However, for peptides 750 and 751, the binding was strong in 25 mM MES at pH 6 but weak in 50 mM acetic acid with 0.1 M NaCl at pH 3.0, which can allow an efficient binding-elution process without the need for chaotrops or organic reagents. Flow-through and acetic acid elution samples from column 4 of the plate (loaded with MES pH 6) were analyzed on a gel (FIG. 14).

BMP-12 [2] = molecular target: T2, BMP-12 (UniProt Q7Z4P5 322-450, limits assumed); assay: peptide resin, filter plate; load 2: 50 mM Acetic Acid, 0.1 M NaCl, pH 4.0
T2 construct: also called BMP12/GDF7
T2 sequence (looked up): T1 sequence (Q7Z4P5 322-450)
Protocol: (§1) The coupled resins, plus an unconjugated resin for use as a control, were suspended in 16% ethanol, 150 mM NaCl, and 20 mM Tris buffer at pH 7.5 at a 25% v/v ratio (e.g., 25% ethanol, 75% Tris buffer). A Tecan liquid-handling robot was employed to aliquot 200 μL of each slurry into one of eight rows of a 96 well polystyrene filter plate (0.45 μm hydrophilic filters, Whatman catalog number 770-1806). Spinning at 1200 g for 3 min removed the liquid phase, leaving 50 μL of wet resin on the filters. The resins were then equilibrated with the loading buffers listed in Table 6 (K is a coefficient characterizing the strength of protein binding to a particular resin in a particular buffer). […] The resins were loaded by transferring 150 μL from the load plate to the filter plate and then incubating 20 min on a shaking platform to facilitate binding. The filter plate was spun down and the filtrate collected in a 96 well UV plate. The protein concentration in the filtrate, or flow-through, was calculated as $(A280-A320)/1.3$. The filter plate was then washed with 150 μL of 100 mM acetic acid, followed by 150 μL of 4M guanidine-HCl and 50 mM sodium acetate at pH 4.0. The protein concentration was measured in the new filtrate as described above. […] Flow-through and acetic acid elution samples from column 4 of the plate (loaded with MES pH 6) were analyzed on a gel (FIG. 14).

BMP-12 [3] = molecular target: T2, BMP-12; assay: peptide resin, filter plate; load 3: 25 mM Na Acetate pH 5.0
Protocol: as §1

BMP-12 [4] = molecular target: T2, BMP-12; assay: peptide resin, filter plate; load 10: 50 mM Tris, 0.1 M NaCl, 40% MPD, pH 8.0
Protocol: as §1

BMP-12 [5] = molecular target: T2, BMP-12; assay: peptide resin, filter plate; load 12: 50 mM Tris, 0.1 M NaCl, 20% MPD, pH 8.0
Protocol: as §1

BMP-12 [6] = molecular target: T2, BMP-12; assay: peptide resin, filter plate; load 5: 25 mM HEPES pH 7.0
Protocol: as §1

BMP-12 [7] = molecular target: T2, BMP-12; assay: peptide resin, filter plate; load 4: 25 mM MES pH 6.0
Protocol: as §1

BMP-12 [8] = molecular target: T2, BMP-12; assay: peptide resin, filter plate; load 6: 1M CHES pH 9.7
Protocol: as §1

BMP-12 [9] = molecular target: T2, BMP-12; assay: peptide resin, filter plate; load 1: 50 mM Acetic Acid, 0.1 M NaCl, pH 2.9
Protocol: as §1

BMP-12 [10] = molecular target: T2, BMP-12; assay: peptide resin, filter plate; load 11: 50 mM Tris, 0.25 M NaCl, 30% MPD, pH 8.0
Protocol: as §1

[11] = 50 mM acetic acid with 0.1 M NaCl at pH 3.0
[12] = loaded in condition 1: 50 mM Acetic Acid, 0.1 M NaCl, pH 2.9
[13] = loaded in condition 2: 50 mM Acetic Acid, 0.1 M NaCl, pH 4.0
[14] = loaded in condition 3: 25 mM Na Acetate pH 5.0
[15] = loaded in condition 4: 25 mM MES pH 6.0
[16] = loaded in condition 5: 25 mM HEPES pH 7.0

| Yield (BMP-12 recovered from resin) (BMP-12 [1]; [12]) [%] | Yield (BMP-12 recovered from resin) (BMP-12 [1]; [13]) [%] | Yield (BMP-12 recovered from resin) (BMP-12 [1]; [14]) [%] | Yield (BMP-12 recovered from resin) (BMP-12 [1]; [15]) [%] | Yield (BMP-12 recovered from resin) (BMP-12 [1]; [16]) [%] | binding of BMP12 by resin coupled to peptide (BMP-12 [1]; loading buffers 1-5) | 100 mM HAc elution K (BMP-12 [2]) | 100 mM HAc elution conc (BMP-12 [2]) [mg/mL] | 4M Gnd, 50 mM NaAc pH 4 Strip Conc (BMP-12 [2]) [mg/ml] | Flow-through K (BMP-12 [2]) | Flow-through conc (BMP-12 [2]) [mg/mL] | 100 mM HAc elution K (BMP-12 [3]) | 100 mM HAc elution conc (BMP-12 [3]) [mg/mL] | 4M Gnd, 50 mM NaAc pH 4 Strip Conc (BMP-12 [3]) [mg/ml] | Flow-through K (BMP-12 [3]) | Flow-through conc (BMP-12 [3]) [mg/mL] | Flow-through K (BMP-12 [4]) | Flow-through conc (BMP-12 [4]) [mg/mL] | Flow-through K (BMP-12 [5]) | Flow-through conc (BMP-12 [5]) [mg/mL] | further results | Molecule |
| --- | --- | --- | --- | --- | --- | --- | --- | --- | --- | --- | --- | --- | --- | --- | --- | --- | --- | --- | --- | --- | --- |
| 104 | 97 | 100 | 92 | 107 | – | – | – | – | – | – | – | – | – | – | – | – | – | – | – | binding of BMP12 by resin coupled to peptide (BMP-12 [1]; 25 mM MES at pH 6): strong; binding of BMP12 by resin coupled to peptide (BMP-12 [1]; [11]): weak | Ac-SDVGWNDWIVAPPGYHAFYSHGEK [Peptide 751] |
| 100 | 103 | 105 | 116 | 103 | – | – | – | – | – | – | – | – | – | – | – | – | – | – | – | – | Ac-VAPPGYHAFYSHGEK [Peptide 745] |
| 86 | 88 | 90 | 88 | 102 | high affinity | – | – | – | – | – | – | – | – | – | – | – | – | – | – | – | Ac-ELGWDDWIIAPLDYEAYHSEGLK [Peptide 749] |
| 81 | 68 | 90 | 88 | 90 | high affinity | – | – | – | – | – | – | – | – | – | – | – | – | – | – | – | Ac-LYVDFSDVGWNDWIVAPPGYHAFYSHGEK [Peptide 747] |
| 100 | 93 | 96 | 85 | 109 | – | – | – | – | – | – | – | – | – | – | – | – | – | – | – | binding of BMP12 by resin coupled to peptide (BMP-12 [1]; 25 mM MES at pH 6): strong; binding of BMP12 by resin coupled to peptide (BMP-12 [1]; [11]): weak | Ac-SDVGWNDWIVAPPGYHAFYCHGEK [Peptide 750] |
| 85 | 84 | 89 | 87 | 87 | high affinity | – | – | – | – | – | – | – | – | – | – | – | – | – | – | – | Ac-RDLGWQDWIIAPEGYAAFYSDGEK [Peptide 748] |
| 91 | 88 | 97 | 87 | 100 | – | – | – | – | – | – | – | – | – | – | – | – | – | – | – | – | Ac-LYV**SDVGWNDWIVK (Ac-LYVSDVGWNDWIVK; not fully specified (residue 3); printed as Ac-LYV**SDVGWNDWIVK) [Peptide 746] |
| – | – | – | – | – | – | 6 | 0.147 | 0.15 | 47 | 0.029 | 2 | 0.274 | 0.111 | 28 | 0.046 | 0 | 0.482 | 0 | 0.438 | 100 mM HAc elution K (BMP-12 [6]): 1; 100 mM HAc elution conc (BMP-12 [6]): 0.255 mg/mL; 4M Gnd, 50 mM NaAc pH 4 Strip Conc (BMP-12 [6]): 0.074 mg/ml; Flow-through K (BMP-12 [6]): 11; Flow-through conc (BMP-12 [6]): 0.103 mg/mL; 100 mM HAc elution K (BMP-12 [7]): 1; 100 mM HAc elution conc (BMP-12 [7]): 0.324 mg/mL; 4M Gnd, 50 mM NaAc pH 4 Strip Conc (BMP-12 [7]): 0.065 mg/ml; Flow-through K (BMP-12 [7]): 38; Flow-through conc (BMP-12 [7]): 0.035 mg/mL; Flow-through K (BMP-12 [8]): -1; Flow-through conc (BMP-12 [8]): 0.659 mg/mL; 100 mM HAc elution K (BMP-12 [9]): 6; 100 mM HAc elution conc (BMP-12 [9]): 0.123 mg/mL; 4M Gnd, 50 mM NaAc pH 4 Strip Conc (BMP-12 [9]): 0.15 mg/ml; Flow-through K (BMP-12 [9]): 10; Flow-through conc (BMP-12 [9]): 0.114 mg/mL; Flow-through K (BMP-12 [10]): 0; Flow-through conc (BMP-12 [10]): 0.45 mg/mL | B1 |
| – | – | – | – | – | – | 6 | 0.151 | 0.229 | 59 | 0.023 | 2 | 0.264 | 0.14 | 57 | 0.024 | 1 | 0.407 | 1 | 0.383 | 100 mM HAc elution K (BMP-12 [6]): 2; 100 mM HAc elution conc (BMP-12 [6]): 0.257 mg/mL; 4M Gnd, 50 mM NaAc pH 4 Strip Conc (BMP-12 [6]): 0.105 mg/ml; Flow-through K (BMP-12 [6]): 23; Flow-through conc (BMP-12 [6]): 0.055 mg/mL; 100 mM HAc elution K (BMP-12 [7]): 2; 100 mM HAc elution conc (BMP-12 [7]): 0.304 mg/mL; 4M Gnd, 50 mM NaAc pH 4 Strip Conc (BMP-12 [7]): 0.091 mg/ml; Flow-through K (BMP-12 [7]): 62; Flow-through conc (BMP-12 [7]): 0.022 mg/mL; Flow-through K (BMP-12 [8]): -1; Flow-through conc (BMP-12 [8]): 0.626 mg/mL; 100 mM HAc elution K (BMP-12 [9]): 6; 100 mM HAc elution conc (BMP-12 [9]): 0.123 mg/mL; 4M Gnd, 50 mM NaAc pH 4 Strip Conc (BMP-12 [9]): 0.177 mg/ml; Flow-through K (BMP-12 [9]): 11; Flow-through conc (BMP-12 [9]): 0.106 mg/mL; Flow-through K (BMP-12 [10]): 1; Flow-through conc (BMP-12 [10]): 0.375 mg/mL | B2 |
| – | – | – | – | – | – | 4 | 0.175 | 0.196 | 26 | 0.05 | 2 | 0.275 | 0.126 | 42 | 0.032 | 0 | 0.434 | 1 | 0.404 | 100 mM HAc elution K (BMP-12 [6]): 1; 100 mM HAc elution conc (BMP-12 [6]): 0.28 mg/mL; 4M Gnd, 50 mM NaAc pH 4 Strip Conc (BMP-12 [6]): 0.093 mg/ml; Flow-through K (BMP-12 [6]): 9; Flow-through conc (BMP-12 [6]): 0.116 mg/mL; 100 mM HAc elution K (BMP-12 [7]): 1; 100 mM HAc elution conc (BMP-12 [7]): 0.321 mg/mL; 4M Gnd, 50 mM NaAc pH 4 Strip Conc (BMP-12 [7]): 0.079 mg/ml; Flow-through K (BMP-12 [7]): 56; Flow-through conc (BMP-12 [7]): 0.025 mg/mL; Flow-through K (BMP-12 [8]): -1; Flow-through conc (BMP-12 [8]): 0.653 mg/mL; 100 mM HAc elution K (BMP-12 [9]): 6; 100 mM HAc elution conc (BMP-12 [9]): 0.098 mg/mL; 4M Gnd, 50 mM NaAc pH 4 Strip Conc (BMP-12 [9]): 0.141 mg/ml; Flow-through K (BMP-12 [9]): 5; Flow-through conc (BMP-12 [9]): 0.175 mg/mL; Flow-through K (BMP-12 [10]): 0; Flow-through conc (BMP-12 [10]): 0.416 mg/mL | B3 |
